Consider 1 substance from US20110020347A1.

In this assay the target is mouse CXCL14 (R&D Systems) (mouse) (UniProt Q9WUQ5). As to the kind of experiment: cell-based or functional assay.
Sequence of UniProt Q9WUQ5 (Q9WUQ5 23-99): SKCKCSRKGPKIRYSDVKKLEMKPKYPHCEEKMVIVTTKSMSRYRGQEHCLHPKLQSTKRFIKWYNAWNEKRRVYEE

“rat anti-mouse CXCL14 monoclonal antibody (MAB730, R&D Systems)” displayed an inhibition of attraction (chemotaxis) of forskolin-stimulated C2C12 cells by mouse CXCL14, antibody at 10 µg/ml, CXCL14 at 100 nM of 54%.
